Sequences and labels used below:
B1: TPR t1 (parent)
chain: GACCAAUCUGCCCUCAGAGCUCGAGAACAUCUUCGGAUGCAGAGGAGGCAGGCUUCGGUGGCGCGAUAGCGCCAACGUCCUCAACCUCCAAUGCAUCCCACCACAUGAUGAUGCCUGAAGAGCCUUGGUUUUUUG

Experimental findings from the RNAGym collection of RNA variant scans (doi:10.1073/pnas.2313332121) are described below.

This series covers variants of B1. Description: polymerase ribozyme fitness, log enrichment relative to wild type (log ratio); higher = more active; in vitro selection for triplet polymerase activity. The method, boiled down: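 A single round of triplicate in vitro selection, including frozen incubation at −7 °C, was applied to PCR-built, transcribed mutant libraries of each subunit of a heterodimeric triplet polymerase ribozyme. Illumina sequencing of input and output libraries retained genotypes with ≥10 input reads and ≥1 read per output. Fitness is the base-2 logarithm of genotype enrichment divided by wild-type enrichment, from inverse-variance-weighted replicate averages.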
As to C13G U32C C85G, the “polymerase ribozyme fitness (log ratio)” value is -4.
With U14A G36A C56U the figure was -3.35; with C13U G135U, -0.441.
For the variant C13A G58C, the “polymerase ribozyme fitness (log ratio)” value was -1.37.
With C13G G52U A75G the figure was -3.6.
With C13U A66U C70U C72G C88U G120A U126C the figure was -4.41; with C13U C123U U132A, 1.91; with U14A G52C C102U U106C C124G, -1.75.
As for C13U C15G A50G G61A, the figure is -1.6; as for C13U C124U, 1.96.
Take C13U C82G A90U C104A: the “polymerase ribozyme fitness (log ratio)” value is -5.14.
As for U14C A26C C70U U78A A83U U109G U112A, the “polymerase ribozyme fitness (log ratio)” value was -6.59.
C13U C56U U92C C114A: the “polymerase ribozyme fitness (log ratio)” value was -1.92.
Regarding C13A G110C, the “polymerase ribozyme fitness (log ratio)” value is -4.52.
With U14C C40G C49G the figure was -3.41.
For C13U U21C C80U A90U, the “polymerase ribozyme fitness (log ratio)” value was -1.82.
With C13U U59C C70G the figure was -4.01; with C13G A50U G61U, -3.51.
Take C13G G127A: the “polymerase ribozyme fitness (log ratio)” value is -2.49.
As for U14A A74C C76A A121C, the figure is -1.88.
As for C13G C15A A18C C79U G120U, the figure is -2.11.
With C13G A83C A121G the figure was 1.65.
On to C13U A83C U112C, for which the “polymerase ribozyme fitness (log ratio)” value came out at 1.79.
With C13U A18C A37C C49U A121C, the “polymerase ribozyme fitness (log ratio)” value is -2.39.
With C13U A29C G61U the figure was -2.08; with C13G A37G A41C A121U, -0.739; with C13U A27U C79A, -3.24.
With C13G G17U C64U G93C the figure was -4.19; with U14A G63C, -2.57.
In the case of C13U G44A A50C G63A C85A, the “polymerase ribozyme fitness (log ratio)” value was -3.07.
In the case of U14A C70A, the “polymerase ribozyme fitness (log ratio)” value was -4.09.
Take U14G G36C: the “polymerase ribozyme fitness (log ratio)” value is -3.92.
In the case of C13A G23A A66G G69A U78C C85U A90U U96G C123U, the “polymerase ribozyme fitness (log ratio)” value was -6.29.
As for C13G G69A U132A, the figure is -3.7; as for C13U U30C C56U A121C U130G, -1.57.
Turning to C13G A83U A95C G110A G120U, the “polymerase ribozyme fitness (log ratio)” value was -3.42.
As for C13U C40G G42A C79A, the figure is -4.76.
As for U14A A46C G69A C101U G110U U126A, the figure is -6.24.
With C13U C72U U92C A105G the figure was -5.23; with C13U A121C, 1.84.
For C13G C34G, the “polymerase ribozyme fitness (log ratio)” value is -5.23.
As to C13G G47A U54C, the “polymerase ribozyme fitness (log ratio)” value is -2.54.
For C13G G128C, the “polymerase ribozyme fitness (log ratio)” value is -3.48.
C13G C72U: the “polymerase ribozyme fitness (log ratio)” value was -1.8.
With C13U C15G G57U G93A G117A the figure was -1.62.
As for C13U U96A, the figure is -1.11; as for C13G G51C C104U G120C, -4.18; as for C13U C102A, -2.14.
With C13A G47A the figure was -2.5; with C13G A90U C124U U129C, -3.28; with U14C U78A C80A, -4.98.
Turning to C13G A37U U38C C62U, the “polymerase ribozyme fitness (log ratio)” value was -4.23.
In the case of C13U G63C, the “polymerase ribozyme fitness (log ratio)” value was -0.36.
In the case of C13U G63U, the “polymerase ribozyme fitness (log ratio)” value was -0.742.
With C13G C28G G42C, the “polymerase ribozyme fitness (log ratio)” value is -6.24.
In the case of C13G C88A U130G, the “polymerase ribozyme fitness (log ratio)” value was -3.24.
With C13U G39A A68C A91G C123A the figure was -7.34; with U14G C20U C22G G23C U33C U38G C62U U112C A118G G127A, -6.3.
As for U14C C72A, the figure is -0.983.
As for C13G U78G, the figure is -2.05; as for C13G C40A G63C G117U U133G, -6.59; as for C13U C64U, 0.138.
As for C13U C40A G61A, the “polymerase ribozyme fitness (log ratio)” value was -0.491.
As for U14A C72U G93U U133A G135U, the figure is -4.17; as for C13U G110U, -1.02.
As for C13A G51U, the “polymerase ribozyme fitness (log ratio)” value was -5.64.
With U14A U125A the figure was -2.3; with U14A U125G, -3.25.
For the variant U14A C79U G117U, the “polymerase ribozyme fitness (log ratio)” value is -5.29.
As for C13U G48A C56A G71A A90G, the figure is -4.36; as for U14A G36U C40G C56A A84G C97A, -7.86; as for U14A G45A G110U U112C, -4.2.
On to C13G U106C, for which the “polymerase ribozyme fitness (log ratio)” value was -2.21.
With U14G C40G C86U A90G U106A the figure was -3.96.
Turning to C13G C56A, the “polymerase ribozyme fitness (log ratio)” value is -1.9.
As for C13U A43C A50U C73U C86U U96G A108U G117U, the figure is -6.8; as for U14A U21G G120U C124U, -0.621.
With C13G G48U the figure was -2.21.
With U14C A46U C62U U125A the figure was -3.37.
As to C13U C82U A83G A118U, the “polymerase ribozyme fitness (log ratio)” value was -1.83.
U14G C79G: the “polymerase ribozyme fitness (log ratio)” value is -3.52.
Consider U14A G63C C82U U132A, for which the “polymerase ribozyme fitness (log ratio)” value is -3.33.
As for C13A G61C, the figure is -1.81.
Turning to U14G C15A, the “polymerase ribozyme fitness (log ratio)” value is -3.45.
For U14C C31G U33G G65U A95U G117U, the “polymerase ribozyme fitness (log ratio)” value was -7.34.
As for U14A C49U G52U A121U U125A, the “polymerase ribozyme fitness (log ratio)” value was -1.22.
As for C13G C104A G110U, the figure is -6.08; as for C13A G61A C82U C124U, -0.178.
As for C13A G39C U59G C104U, the figure is -1.47; as for C13U U21A A27G G61C C99U, -6.29.
With C13U U14A G71A C82G the figure was -2.67; with U14G C80U C102U C123G, -1.69; with C13U G45U C56G U87A, -3.44.
Consider C13U C40U A43G G52U G58C A91C, for which the “polymerase ribozyme fitness (log ratio)” value was -2.35.
As for U14G G48U G60U, the figure is -2.56.
As to U14A C53G C70U C72G, the “polymerase ribozyme fitness (log ratio)” value is -4.88.
As for C13A G42A G77U U131C, the figure is -3.87; as for C13U U32C G93C A95G, -1.09; as for C13G G48U C53A, -2.34.
With C13U C104A, the “polymerase ribozyme fitness (log ratio)” value is -1.47.
As to C13U A18C U55G G93U, the “polymerase ribozyme fitness (log ratio)” value was -2.65.
With C13U A74U G93C G113A, the “polymerase ribozyme fitness (log ratio)” value was -1.26.
Consider C13U A37G G47A G57C G71C, for which the “polymerase ribozyme fitness (log ratio)” value was -1.61.
Regarding C13U A29C C56U, the “polymerase ribozyme fitness (log ratio)” value was -2.25.
For the variant U14G A41C A74U A84C, the “polymerase ribozyme fitness (log ratio)” value was -3.77.
In the case of U14G C56U C70A, the “polymerase ribozyme fitness (log ratio)” value was -5.19.
With C13U C28G C53G U78G C88A U106A G110A A111G the figure was -1.49.
With C13U C62G U130C G135U the figure was -1.67.
In the case of U14C C20A C114U G128U, the “polymerase ribozyme fitness (log ratio)” value was -5.92.
Consider U14G C73U A90G, for which the “polymerase ribozyme fitness (log ratio)” value was 1.59.
As for C13U C15A G63C, the figure is -4.06; as for U14A G48A C56U G117U, -5.41.
With C13U A37U C64G G93C A105U G110U U129G, the “polymerase ribozyme fitness (log ratio)” value is -7.07.
As for C13G C62G G117C, the figure is -8.19; as for C13A G39C G120A, -0.0336; as for U14A U32C U87A C101A, -3.54.
With C13G G47U the figure was -3.12; with U14C C80U, -2.7.
With U14G G51A G113A G120A A121G, the “polymerase ribozyme fitness (log ratio)” value was -2.87.
Regarding U14C G47C, the “polymerase ribozyme fitness (log ratio)” value was -2.99.
As for C13U A37U C64U U92A U126C, the figure is -3.51.
Regarding U14A G60U U78C, the “polymerase ribozyme fitness (log ratio)” value was -3.65.
As for C13G U81C, the figure is -1.96.
As for C13A G57C C85G C123U, the figure is -1.45.
As for C13U G60C C82U U96G, the figure is -1.02.
With C13U G63U A90U G117C, the “polymerase ribozyme fitness (log ratio)” value is -5.21.
With C13G A41C C97A C115A G128A the figure was -7.05; with U14G G60A G117U, -5.67; with U14G C34A G117A, -4.56.
Turning to U14A C56G, the “polymerase ribozyme fitness (log ratio)” value is -3.51.
For the variant C13G A66U, the “polymerase ribozyme fitness (log ratio)” value was -2.18.
U14A A43G G58A C86U: the “polymerase ribozyme fitness (log ratio)” value was -4.43.
As for C13G U132A, the figure is -1.5.
With C13U G93A C114G the figure was -2.39; with C13A U106A G110A, -2.53; with U14A C85A C89G C123U, -3.2.
With C13G G63U C123A the figure was -0.659.
With U14A C70U C104U, the “polymerase ribozyme fitness (log ratio)” value is -2.52.
With C13U G69U G93A U126C the figure was -0.75.
With U14G U54A G61C the figure was -2.7; with U14G C22U A29G G61A C124G U129C, -4.06; with U14A A18U C31G U38G G107A C124A, -6.73.
For U14A G61U U81A C97U, the “polymerase ribozyme fitness (log ratio)” value is -3.36.
On to U14A G120A, for which the “polymerase ribozyme fitness (log ratio)” value is -0.235.
As for C13G G60U G93A C104U U129A, the figure is -4.29; as for C13A U129A, -2.8.
With C13U G93C the figure was -0.682.
In the case of C13U C56U G60C C73A, the “polymerase ribozyme fitness (log ratio)” value is -0.677.
With C13G C124G U126A U131A the figure was -0.0429; with C13A G61U A91U, -2.53.
With U14G G120U the figure was -1.14; with C13U C49U, -0.549; with C13G A37G G48C, -3.17.
As for U14C G42U G44A G61U, the figure is -2.82; as for C13U G35U, -3.47.
Take C13U G35A C86G: the “polymerase ribozyme fitness (log ratio)” value was -3.98.
Take C13G G23U A29C G69A C97A U112G U126G: the “polymerase ribozyme fitness (log ratio)” value was -6.55.
For the variant C13G C64U, the “polymerase ribozyme fitness (log ratio)” value is -0.666.
As for C13G C56A A74G C101G U112C U130A, the figure is -3.67.
As to C13G G47U C49U C73A, the “polymerase ribozyme fitness (log ratio)” value is -3.52.
As for C13U U55G A91G, the figure is -0.322; as for C13U C34A U54A U78C U112A G122C, -3.05.
With U14A A29G G113A, the “polymerase ribozyme fitness (log ratio)” value was -5.5.
With C13G C53G G63A the figure was -2.67; with U14G C70G U116G U125A, -5.32; with C13U U59A U81C, -0.938.
With U14G G48A C64U U116A C123G U131C the figure was -1.29.
